Test results from patent publication US20210371823A1.

Biological target: human MICA protein (hMICA) (human) (UniProt Q29983)
Assay: cell-based or functional assay

UniProt Q29983, sequence (Q29983 24-383): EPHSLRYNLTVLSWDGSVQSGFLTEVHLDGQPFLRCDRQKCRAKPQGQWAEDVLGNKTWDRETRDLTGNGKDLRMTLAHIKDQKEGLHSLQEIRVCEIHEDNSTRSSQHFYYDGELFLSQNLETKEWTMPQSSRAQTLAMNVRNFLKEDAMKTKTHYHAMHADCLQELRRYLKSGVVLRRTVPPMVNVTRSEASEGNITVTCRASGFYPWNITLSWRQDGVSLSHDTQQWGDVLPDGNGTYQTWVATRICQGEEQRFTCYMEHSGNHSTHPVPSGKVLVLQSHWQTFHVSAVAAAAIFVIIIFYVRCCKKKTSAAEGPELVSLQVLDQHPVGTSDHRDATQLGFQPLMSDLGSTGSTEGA

“activation receptor NKG2D on NK cells (from UniProt P26718 1-216)” was tested, and the killing effect of NK cells on 3T3-Luc/hMICA cells at effector-target ratio 1:1 (luciferase-based killing assay) was 60%.
